The RNAGym collection of RNA variant scans (doi:10.7554/elife.80360)

B1: Hairpin Ribozyme (parent)
chain: GUCCUCUUUCACGUGCGCGUGAAAGAGAGAAGUGAACCAGAGAAACACACGUUGUGGUAUAUUACCUGGUA

Variants of: B1
Assay: self-cleavage, relative activity (ratio to wild type); higher = more cleavage; co-transcriptional

Variant	self-cleavage
GUCCCCUUUCACGUGCGCGUGAAAGAGAGAAAUGAACCAGAGAAACACACGUUGUGGUAUAUUACCUGGUA [U5C G32A]	0.162
GUCCACUUUCACGUGCGCGUGAAAGAGAGAAGCGAACCAGAGAAACACACGUUGUGGUAUAUUACCUGGUA [U5A U33C]	0.0952
GUCCACUUUCACGUGCGCGAGAAAGAGAGAAGUGAACCAGAGAAACACACGUUGUGGUAUAUUACCUGGUA [U5A U20A]	0.315
GUCCCCUUUCACGUGCGCGUGAAAGAGAGAAGUGAAACAGAGAAACACACGUUGUGGUAUAUUACCUGGUA [U5C C37A]	0.178
GUCCCCUUUCACGUGCGCGUGAAAGUGAGAAGUGAACCAGAGAAACACACGUUGUGGUAUAUUACCUGGUA [U5C A26U]	0.505
GUCCCCUUUCACGUGCGCGUGAAAGAGAGAAGUGCACCAGAGAAACACACGUUGUGGUAUAUUACCUGGUA [U5C A35C]	0.732
GUCCCCUUUCACGUGCGCGUGAAAGAGAGAAGUGUACCAGAGAAACACACGUUGUGGUAUAUUACCUGGUA [U5C A35U]	0.0604
GUCCCCUUUCACGUGCGCGUGAAAGAGAGAAGUGAACCAGAGAAACACACGUUGUGGUCUAUUACCUGGUA [U5C A59C]	0.105
GUCCCCUUUCACGUGCGCGUGAAAGAGAGAAGUGAACCGGAGAAACACACGUUGUGGUAUAUUACCUGGUA [U5C A39G]	0.192
GUCCCCUUUCACGUGCGCGUGAAAGAGAGAAGUGAACCAGAGAAACACACGUUGUGGUAUAUUACGUGGUA [U5C C66G]	0.113
GUCCCCUUUCACGUGCGCGUGAAAGAGAGAAGUGAACCAGAGAAACACACGUUGUGGUAUAUUACUUGGUA [U5C C66U]	0.38
GUCCCCUUUCACGUGCGCGUGAAAGAGAGAAGUGAACCAGUGAAACACACGUUGUGGUAUAUUACCUGGUA [U5C A41U]	1.06
GUCCCCUUUCACGUGCGCGUGAAAGAGAGAAGUGAACCAGGGAAACACACGUUGUGGUAUAUUACCUGGUA [U5C A41G]	0.569
GUCCCCUUUCAUGUGCGCGUGAAAGAGAGAAGUGAACCAGAGAAACACACGUUGUGGUAUAUUACCUGGUA [U5C C12U]	0.772
GUCCACUUCCACGUGCGCGUGAAAGAGAGAAGUGAACCAGAGAAACACACGUUGUGGUAUAUUACCUGGUA [U5A U9C]	0.179
GUCCCCUUUCACGUGCGCGUGAAAGAGAGAAGUGAACCAGAGACACACACGUUGUGGUAUAUUACCUGGUA [U5C A44C]	0.0386
GUCCACUUUCACGUGCGCGUGAAAGAGAGAAGUGAACCAGAGAAACACACGUUGUGGUAUAGUACCUGGUA [U5A U62G]	0.11
GUCCCCUUUCACGUGCGCGUGAAAGAGAGAAGUGACCCAGAGAAACACACGUUGUGGUAUAUUACCUGGUA [U5C A36C]	0.576
GUCCCCUUUCACGUGCGCGUGAAAGAGAGAAGUGAGCCAGAGAAACACACGUUGUGGUAUAUUACCUGGUA [U5C A36G]	0.502
GUCCCCUUUCACGUGCGCGUGAAAGAGAGAAGUGAACCAGAGAAACACACGUUGUGGUAUCUUACCUGGUA [U5C A61C]	0.128
GUCCCCUUUCACGUGCGCGUGAAAGAGAGAAGUGAACCAGAGAAACACACGUUGUGGUAUGUUACCUGGUA [U5C A61G]	0.176
GUCCACUUUCACGUGCGCGUGAAAGAGAGAAGUGAACCAGAGAAACACACGUUGUGGUAUAUUACCUUGUA [U5A G68U]	0.154
GUCCACUUUCACGUGCGCGUGAAAGAGAGAAGUGAACCAGAGAAACACACGUUGUGGUAUAUCACCUGGUA [U5A U63C]	0.196
GUCCACUUUCACGUGCGCGUGAAAGAGAGAAGUGAACCAGAGAAACACACGUUGUGGUAUAUAACCUGGUA [U5A U63A]	0.206
GUCCCCUUUCACGUGCGCGUGAAAGAGAGAAGUGAACCAGAGAAACACACGUUGUAGUAUAUUACCUGGUA [U5C G56A]	0.107
GUCCCCUUUCACGUGCGCGUGAAAGAGAGAAGUGAACCAGAGAAACACACGUUGUUGUAUAUUACCUGGUA [U5C G56U]	0.128

Variant	self-cleavage
GUCCCCUUUCACGUGCGCGUGAAAGAGAGAAGUGAACCAGAGAAACACACGUUGUGGUAUAUUACCUGGUU [U5C A71U]	0.564
GUCCCGUUUCACGUGCGCGUGAAAGAGAGAAGUGAACCAGAGAAACACACGUUGUGGUAUAUUACCUGGUA [U5C C6G]	0.138
GUCCACUUUCACGUGCGCGUGAAAGAAAGAAGUGAACCAGAGAAACACACGUUGUGGUAUAUUACCUGGUA [U5A G27A]	0.179
GUCCACUUUCACGUGCGCGUGAAAGACAGAAGUGAACCAGAGAAACACACGUUGUGGUAUAUUACCUGGUA [U5A G27C]	0.187
GUCCACUUUCACGUGCGCGUGAAAGAUAGAAGUGAACCAGAGAAACACACGUUGUGGUAUAUUACCUGGUA [U5A G27U]	0.116
GUCCCCUUUCACGUGCGCGUGAAGGAGAGAAGUGAACCAGAGAAACACACGUUGUGGUAUAUUACCUGGUA [U5C A24G]	0.453
GUCCCCUUUCACGUGCGCGUGAACGAGAGAAGUGAACCAGAGAAACACACGUUGUGGUAUAUUACCUGGUA [U5C A24C]	0.483
GUCCACUUUCACGCGCGCGUGAAAGAGAGAAGUGAACCAGAGAAACACACGUUGUGGUAUAUUACCUGGUA [U5A U14C]	0.343
GUCCCCUUUCACGUGCGCGUGAAAGAGAGAAGUGAACCAGAGAAAUACACGUUGUGGUAUAUUACCUGGUA [U5C C46U]	0.023
GUCCCCUUUCACGUGCGCGUGAAAGACAGAAGUGAACCAGAGAAACACACGUUGUGGUAUAUUACCUGGUA [U5C G27C]	0.15
GUCCCCUUUCACGUGCGCGUGAAAGAUAGAAGUGAACCAGAGAAACACACGUUGUGGUAUAUUACCUGGUA [U5C G27U]	0.0794
GUCCCCUUUCACGUUCGCGUGAAAGAGAGAAGUGAACCAGAGAAACACACGUUGUGGUAUAUUACCUGGUA [U5C G15U]	0.574
GUCCCCUUUCACGUCCGCGUGAAAGAGAGAAGUGAACCAGAGAAACACACGUUGUGGUAUAUUACCUGGUA [U5C G15C]	0.469
GUCCCCUUUCACGUGCGCGUGAAAGAGAGAAGUGAACCAGAGAAACACAUGUUGUGGUAUAUUACCUGGUA [U5C C50U]	0.17
GUCCCCUUUCACGUGCGCGUGAAAGAGAGAAGUGAACCAGAGAAACACACGUUGUGGUAUAUUAACUGGUA [U5C C65A]	0.511
GUCCACUUUCACGUGCGCGUGAAAGAGAGAAGUGAACCAGAGAAACACACGUAGUGGUAUAUUACCUGGUA [U5A U53A]	0.221
GUCCACUUUCACGUGCGCGUGAAAGAGAGAAGUGAACCAGAGAAACACACGUCGUGGUAUAUUACCUGGUA [U5A U53C]	0.452
GUCCCCUUUCACGUGCGCGUGAAAGAGAGAAGUGAACCAGAGGAACACACGUUGUGGUAUAUUACCUGGUA [U5C A43G]	0.201
GUCCCCUUUCACGUGCGAGUGAAAGAGAGAAGUGAACCAGAGAAACACACGUUGUGGUAUAUUACCUGGUA [U5C C18A]	0.699
GUCCCCUUUCACGUGCGGGUGAAAGAGAGAAGUGAACCAGAGAAACACACGUUGUGGUAUAUUACCUGGUA [U5C C18G]	0.251
GUCCCCUUUCACGUGCGCGUGAAAGAGAGAAGUGAACCAGAGAAACCCACGUUGUGGUAUAUUACCUGGUA [U5C A47C]	0.208
GUCCCCUUUCACGUGCGCGUGAAAGAGAGAAGUGAACCAGAGAAACUCACGUUGUGGUAUAUUACCUGGUA [U5C A47U]	0.166
GUCCACUUUCACGUGCGCGUGAAAGAGAGAAGUGAACCAUAGAAACACACGUUGUGGUAUAUUACCUGGUA [U5A G40U]	0.101
GUCCCCUUUCCCGUGCGCGUGAAAGAGAGAAGUGAACCAGAGAAACACACGUUGUGGUAUAUUACCUGGUA [U5C A11C]	0.764
GUCCCCUUUCACGUGCGCGUGAAAGAGAGAAGUGAACCAGAUAAACACACGUUGUGGUAUAUUACCUGGUA [U5C G42U]	0.164
GUCCCCUUUCACGUGCGCGUGAAAGAGAGAAGUGAACCAGACAAACACACGUUGUGGUAUAUUACCUGGUA [U5C G42C]	0.327

Variant	self-cleavage
GUCCCCUUUCACGUGCGCGUGAAAGAGAAAAGUGAACCAGAGAAACACACGUUGUGGUAUAUUACCUGGUA [U5C G29A]	0.106
GUCCACUUUCACGUGCGCGUGAAAGAGAGAAGUGAACCAGAGAAACACACGUUGCGGUAUAUUACCUGGUA [U5A U55C]	0.157
GUCCACUUUCACGUGCGCGUGAAAGAGAGAAGUGAACCAGAGAAACACACAUUGUGGUAUAUUACCUGGUA [U5A G51A]	0.393
GUCCCCUUUCACGUGCACGUGAAAGAGAGAAGUGAACCAGAGAAACACACGUUGUGGUAUAUUACCUGGUA [U5C G17A]	0.644
GUCCCCUUUCACGUGCUCGUGAAAGAGAGAAGUGAACCAGAGAAACACACGUUGUGGUAUAUUACCUGGUA [U5C G17U]	0.794
GUCCACUUUCACGUGCGCGUGAAAGAGAGAAGUGAACCAGAAAAACACACGUUGUGGUAUAUUACCUGGUA [U5A G42A]	0.217
GUCCACUUUCACGUGCGCGUGAAAGAGAGAAAUGAACCAGAGAAACACACGUUGUGGUAUAUUACCUGGUA [U5A G32A]	0.158
GUCCCCUUUCACGUGCGCAUGAAAGAGAGAAGUGAACCAGAGAAACACACGUUGUGGUAUAUUACCUGGUA [U5C G19A]	0.422
GUCCACGUUCACGUGCGCGUGAAAGAGAGAAGUGAACCAGAGAAACACACGUUGUGGUAUAUUACCUGGUA [U5A U7G]	0.253
GUCCCCUUUGACGUGCGCGUGAAAGAGAGAAGUGAACCAGAGAAACACACGUUGUGGUAUAUUACCUGGUA [U5C C10G]	0.373
GUCCCCUUUCACGUGCGCGUGAAAGAGAGAAGUGAACAAGAGAAACACACGUUGUGGUAUAUUACCUGGUA [U5C C38A]	0.168
GUCCCCUUUCACGUGCGCGUGAAAGAGAGAAGUGAACCAGAGAAACACUCGUUGUGGUAUAUUACCUGGUA [U5C A49U]	0.143
GUCCACUCUCACGUGCGCGUGAAAGAGAGAAGUGAACCAGAGAAACACACGUUGUGGUAUAUUACCUGGUA [U5A U8C]	0.141
GUCCACUGUCACGUGCGCGUGAAAGAGAGAAGUGAACCAGAGAAACACACGUUGUGGUAUAUUACCUGGUA [U5A U8G]	0.261
GUCCACUAUCACGUGCGCGUGAAAGAGAGAAGUGAACCAGAGAAACACACGUUGUGGUAUAUUACCUGGUA [U5A U8A]	0.285
GUCCACUUUCACGUGCGCGUGAAAGAGAGAAGUGAACCAGAGAAACACACGUUGUGUUAUAUUACCUGGUA [U5A G57U]	0.102
GUCCACUUUCACGUGCGCGUGAAAGAGAGAAGUGAACCAGAGAAACACACGUUGUGGUACAUUACCUGGUA [U5A U60C]	0.709
GUCCACUUUCACGUGCGCGUGAAAGAGAGAAGUGAACCAGAGAAACACACGUUGUGGUAAAUUACCUGGUA [U5A U60A]	0.477
GUCCCCUUUCACGUGCGCGUGAAAGAGAGAAGUGAACCAGAGAAACACACGUUCUGGUAUAUUACCUGGUA [U5C G54C]	0.169
GUCCCCUUUCACGUGCGCGUGAAAGAGAGAAGUGAACCAGAGAAACACACGUUAUGGUAUAUUACCUGGUA [U5C G54A]	0.467
GUCCCCUUUCACGUGCGCGUGAAAGAGAGAAGUGAACCAGAGAAACACACGUUUUGGUAUAUUACCUGGUA [U5C G54U]	0.492
GUCCCCUUUCACGUGCGCGUGAAAGAGAGAAGUGAACCAGAGAAACACACGUUGUGGUAUAUUACCUGGUA [U5C]	0.648
GUCCCCUUUCACGUGCGCGUGACAGAGAGAAGUGAACCAGAGAAACACACGUUGUGGUAUAUUACCUGGUA [U5C A23C]	0.692
GUCCCCUUUCACGUGCGCGUGAGAGAGAGAAGUGAACCAGAGAAACACACGUUGUGGUAUAUUACCUGGUA [U5C A23G]	0.683
